Measurements from patent US20110046068A1 (MEDICAL RESEARCH COUNCIL, published 2011).
Non-standard residues stand in square brackets, D forms with d. No end group written: not given here.

Tests used:
human gpr-54 receptor [1] = molecular target: T1, human gpr-54 receptor (human, UniProt Q969F8 1-398); assay: whole-cell competition binding against 125I-kisspeptin, CHO cells stably transfected with GPR54 (CPM); the fall of the curve lies between Total and -10 LogM [200]
T1 construct: whole, on cells; CHO cells stably expressing the human gpr-54 receptor came from Prof; G. Vassart; also called kisspeptin receptor; AXOR12
T1 sequence (Q969F8 whole entry): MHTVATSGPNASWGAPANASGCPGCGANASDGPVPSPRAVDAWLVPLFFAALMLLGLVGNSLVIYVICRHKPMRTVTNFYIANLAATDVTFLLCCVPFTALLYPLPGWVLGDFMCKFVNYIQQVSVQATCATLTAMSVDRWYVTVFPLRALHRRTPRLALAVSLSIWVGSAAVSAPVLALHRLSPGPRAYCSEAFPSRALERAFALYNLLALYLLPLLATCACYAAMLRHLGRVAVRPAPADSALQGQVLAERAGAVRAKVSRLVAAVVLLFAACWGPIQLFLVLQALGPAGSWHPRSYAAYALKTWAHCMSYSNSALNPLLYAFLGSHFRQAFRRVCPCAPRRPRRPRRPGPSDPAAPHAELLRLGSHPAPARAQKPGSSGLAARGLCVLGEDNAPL
Experimental: (§1) Cell monolayers were placed on ice and exposed to 0.5 mls peptide (10 pM-1 uM); the cells were then incubated at 4° C. for 4 hr. After 4 hrs, cells were washed twice with ice cold Dulbecco's phosphate buffered saline (DPBS; with Calcium and Magnesium) and then 0.5 mls 0.1M Sodium Hydroxide (NaOH) were added to cells for 20 minutes, shaking to lyse cells. Lysates were transferred to plastic tubes and bound radioactivity counted on the gamma counter for 60 seconds.

human gpr-54 receptor [2] = molecular target: T1, human gpr-54 receptor; assay: cell-based or functional assay
human gpr-54 receptor [3] = molecular target: T1, human gpr-54 receptor; assay: cell-based or functional assay; remark: listed apart in the source
human gpr-54 receptor [4] = molecular target: T1, human gpr-54 receptor; assay: whole-cell competition binding against 125I-kisspeptin, CHO cells stably transfected with hGPR54 (CPM) [187]
Experimental: as §1

human gpr-54 receptor [5] = molecular target: T1, human gpr-54 receptor; assay: cell-based or functional assay; remark: listed apart in the source
human gpr-54 receptor [6] = molecular target: T1, human gpr-54 receptor; assay: whole-cell competition binding against 125I-kisspeptin, CHO cells stably transfected with GPR54 (CPM) [234]
Experimental: as §1

human gpr-54 receptor [7] = molecular target: T1, human gpr-54 receptor; assay: cell-based or functional assay; remark: listed apart in the source
human gpr-54 receptor [8] = molecular target: T1, human gpr-54 receptor; assay: cell-based or functional assay; remark: listed apart in the source
human gpr-54 receptor [9] = molecular target: T1, human gpr-54 receptor; assay: competition of I125-labelled kisspeptin-10 on gpr-54 cells (CPM x 10^3); the legend calls the number an affinity
human gpr-54 receptor [10] = molecular target: T1, human gpr-54 receptor; assay: cell-based or functional assay; remark: listed apart in the source
human gpr-54 receptor [11] = molecular target: T1, human gpr-54 receptor; assay: whole-cell competition binding against 125I-kisspeptin, CHO cells stably transfected with GPR54 (CPM) [229]
Experimental: as §1

human gpr-54 receptor [12] = molecular target: T1, human gpr-54 receptor; assay: cell-based or functional assay; remark: listed apart in the source
human gpr-54 receptor [13] = molecular target: T1, human gpr-54 receptor; assay: whole-cell competition binding against 125I-kisspeptin, CHO cells stably transfected with GPR54 (CPM); the fall of the curve lies between Total and -10 LogM [231]
Experimental: as §1

human gpr-54 receptor [14] = molecular target: T1, human gpr-54 receptor; assay: cell-based or functional assay; remark: listed apart in the source
human gpr-54 receptor [15] = molecular target: T1, human gpr-54 receptor; assay: whole-cell competition binding against 125I-kisspeptin, CHO cells stably transfected with hGPR54 (CPM) [188]
Experimental: as §1

B1: 200 (peptide)
peptide: Ac-FGL[dR]W-NH2
modifications: not fully specified
notes: kisspeptin-10 analogue; also called acFGL[(D)-R]W
IC50 (human gpr-54 receptor [1]): 2.49 pM | Inhibition of IP stimulation by 10nM Agonist: % Inhibition of Max (human gpr-54 receptor [2]): 63% | Inhibition of IP stimulation by 10nM Agonist: IC50 (human gpr-54 receptor [2]): 300 nM | IP competition with 10nM kisspeptin-10: IC50 [200] (human gpr-54 receptor [3]): 300 nM

YNWNSFGLRW-NH2 (kisspeptin-10 analogue) [187]
IC50 (human gpr-54 receptor [4]): 211 nM | IP stimulation (IC50), peptide alone (human gpr-54 receptor [2]): 40 nM | Inhibition of IP stimulation by 10nM Agonist: % Inhibition of Max (human gpr-54 receptor [2]): 36% | IP dose response, peptide alone: EC50 (unlabelled number beside rising curve) [187] (human gpr-54 receptor [5]): 72.1 nM

[dA]NWNGFG[dW]RF-NH2 [Peptide 234]
IC50 (human gpr-54 receptor [6]): 2.79 nM | IP competition with 10nM kisspeptin-10: IC50 [234] (human gpr-54 receptor [7]): 70 nM | IC50 of inhibition of 10 nM kisspeptin-10 stimulation of IP (human gpr-54 receptor [8]): 7 nM | IC50 of inhibition of kisspeptin stimulation of IP (human gpr-54 receptor [8]): < 10 nM | Inhibition of IP stimulation by 10nM Agonist: IC50 (human gpr-54 receptor [2]): 70 nM | IC50 (human gpr-54 receptor [9]): 2.8 nM

B2: 229 (peptide)
peptide: Ac-YNWN[dW]FG[dW]RF-NH2
SMILES: CC(=O)N[C@@H](Cc1ccc(O)cc1)C(=O)N[C@@H](CC(N)=O)C(=O)N[C@@H](Cc1c[nH]c2ccccc12)C(=O)N[C@@H](CC(N)=O)C(=O)N[C@H](Cc1c[nH]c2ccccc12)C(=O)N[C@@H](Cc1ccccc1)C(=O)NCC(=O)N[C@H](Cc1c[nH]c2ccccc12)C(=O)N[C@@H](CCCNC(=N)N)C(=O)N[C@@H](Cc1ccccc1)C(N)=O
notes: kisspeptin-10 analogue; also called acYNWN[(D)-W]FG[(D)-W]RF
IP competition with 10nM kisspeptin-10: IC50 [229] (human gpr-54 receptor [10]): 8 µM | IC50 (human gpr-54 receptor [11]): 1.17 nM | Inhibition of IP stimulation by 10nM Agonist: % Inhibition of Max (human gpr-54 receptor [2]): 68% | Inhibition of IP stimulation by 10nM Agonist: IC50 (human gpr-54 receptor [2]): 8000 nM

B3: 231 (peptide)
peptide: Ac-YN[dW]NGFG[dW]RF-NH2
SMILES: CC(=O)N[C@@H](Cc1ccc(O)cc1)C(=O)N[C@@H](CC(N)=O)C(=O)N[C@H](Cc1c[nH]c2ccccc12)C(=O)N[C@@H](CC(N)=O)C(=O)NCC(=O)N[C@@H](Cc1ccccc1)C(=O)NCC(=O)N[C@H](Cc1c[nH]c2ccccc12)C(=O)N[C@@H](CCCNC(=N)N)C(=O)N[C@@H](Cc1ccccc1)C(N)=O
notes: kisspeptin-10 analogue; also called acYN[(D)-W]NGFG[(D)-W]RF
Inhibition of IP stimulation by 10nM Agonist: % Inhibition of Max (human gpr-54 receptor [2]): 55% | Inhibition of IP stimulation by 10nM Agonist: IC50 (human gpr-54 receptor [2]): 0.1 nM | IP competition with 10nM kisspeptin-10: IC50 [231] (human gpr-54 receptor [12]): 100 pM | IC50 (human gpr-54 receptor [13]): 0.564 pM

B4: 188 (peptide)
peptide: Ac-FGLRF-NH2
notes: kisspeptin-10 analogue; also called Peptide 188; acFGLRF
IP competition with 10nM kisspeptin-10: IC50 [188] (human gpr-54 receptor [14]): < 100 pM | IP dose response, peptide alone: EC50 (unlabelled number beside rising curve) [188] (human gpr-54 receptor [14]): 92.3 nM | IC50 (human gpr-54 receptor [15]): 143 nM | IP stimulation (IC50), peptide alone (human gpr-54 receptor [2]): 125 nM | Inhibition of IP stimulation by 10nM Agonist: % Inhibition of Max (human gpr-54 receptor [2]): 74%
